Measurements: article PMC8421216 (Nucleic Acids Research, 2020)
Like-named read-outs stand apart in the source and are kept apart here.

Experiments:
Pum-HD [1] = molecular target: T1, Pum-HD (Drosophila melanogaster, UniProt P25822 1093-1426); assay: ITC
T1 sequence: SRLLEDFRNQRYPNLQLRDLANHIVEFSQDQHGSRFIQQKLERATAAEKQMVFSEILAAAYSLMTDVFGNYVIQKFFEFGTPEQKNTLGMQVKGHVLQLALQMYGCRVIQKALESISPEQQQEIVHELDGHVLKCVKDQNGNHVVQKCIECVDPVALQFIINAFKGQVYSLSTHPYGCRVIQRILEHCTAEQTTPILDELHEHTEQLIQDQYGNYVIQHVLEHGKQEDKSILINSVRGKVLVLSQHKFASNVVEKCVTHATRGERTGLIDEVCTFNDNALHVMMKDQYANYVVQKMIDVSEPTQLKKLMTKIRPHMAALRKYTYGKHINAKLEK

Brat-NHL [2] = molecular target: T2, Brat-NHL (Drosophila melanogaster, UniProt Q8MQJ9 756-1037); assay: ITC
T2 sequence: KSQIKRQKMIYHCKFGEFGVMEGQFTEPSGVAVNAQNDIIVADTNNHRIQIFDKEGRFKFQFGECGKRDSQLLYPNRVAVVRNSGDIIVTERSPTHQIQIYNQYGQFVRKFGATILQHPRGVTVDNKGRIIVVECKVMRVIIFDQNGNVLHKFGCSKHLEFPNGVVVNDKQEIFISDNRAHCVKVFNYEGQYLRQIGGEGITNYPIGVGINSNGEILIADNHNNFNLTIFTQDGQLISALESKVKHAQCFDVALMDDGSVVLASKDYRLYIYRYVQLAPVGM

Brat-NHL [3] = molecular target: T2, Brat-NHL; assay: ITC; remark: listed apart in the source
Brat-NHL [4] = molecular target: T2, Brat-NHL; assay: ITC; remark: listed apart in the source
Pum-HD [5] = molecular target: T1, Pum-HD; assay: ITC; remark: listed apart in the source
Pum-HD [6] = molecular target: T1, Pum-HD; assay: ITC; remark: listed apart in the source
Pum-HD [7] = molecular target: T1, Pum-HD; assay: ITC; remark: listed apart in the source
[8] = molecular target: T3, HD domain of Pumilio (Pum-HD) (Drosophila, UniProt P25822 1093-1426); assay: SEC + SEC-MALS
T3 sequence (looked up): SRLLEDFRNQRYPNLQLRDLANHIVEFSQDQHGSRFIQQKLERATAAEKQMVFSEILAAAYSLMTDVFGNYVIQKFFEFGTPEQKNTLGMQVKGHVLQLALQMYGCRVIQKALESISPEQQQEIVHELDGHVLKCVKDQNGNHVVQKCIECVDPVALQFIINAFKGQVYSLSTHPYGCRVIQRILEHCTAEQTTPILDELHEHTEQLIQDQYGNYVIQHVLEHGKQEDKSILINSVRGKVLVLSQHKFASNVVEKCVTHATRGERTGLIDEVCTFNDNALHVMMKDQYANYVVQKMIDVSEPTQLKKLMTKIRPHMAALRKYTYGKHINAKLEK

Pum-HD [9] = molecular target: T1, Pum-HD; assay: ITC; remark: listed apart in the source
Pum-HD [10] = molecular target: T1, Pum-HD; assay: ITC; remark: listed apart in the source
Pum-HD [11] = molecular target: T1, Pum-HD; assay: ITC; remark: listed apart in the source
Brat-NHL [12] = molecular target: T2, Brat-NHL; assay: ITC; remark: listed apart in the source
Pum-HD [13] = molecular target: T1, Pum-HD; assay: ITC; remark: listed apart in the source
[14] = molecular target: T4, Pum-HD;Brat-NHL;Nanos-ZnF (Drosophila melanogaster;Drosophila …, UniProt P25822;Q8MQJ9;P25724 1093-1426;756-1037;301-392, ||); assay: SEC-MALLS, NMR, SAXS/SANS
T4 sequence 1: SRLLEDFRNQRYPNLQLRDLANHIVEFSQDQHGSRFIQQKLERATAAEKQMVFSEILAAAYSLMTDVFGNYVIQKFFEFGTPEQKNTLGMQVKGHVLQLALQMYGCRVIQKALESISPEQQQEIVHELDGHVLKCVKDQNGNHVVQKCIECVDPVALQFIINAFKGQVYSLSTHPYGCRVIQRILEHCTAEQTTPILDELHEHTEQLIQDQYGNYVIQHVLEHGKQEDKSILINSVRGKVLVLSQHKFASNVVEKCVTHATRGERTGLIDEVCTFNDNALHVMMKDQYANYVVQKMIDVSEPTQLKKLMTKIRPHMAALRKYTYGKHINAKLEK
T4 sequence 2: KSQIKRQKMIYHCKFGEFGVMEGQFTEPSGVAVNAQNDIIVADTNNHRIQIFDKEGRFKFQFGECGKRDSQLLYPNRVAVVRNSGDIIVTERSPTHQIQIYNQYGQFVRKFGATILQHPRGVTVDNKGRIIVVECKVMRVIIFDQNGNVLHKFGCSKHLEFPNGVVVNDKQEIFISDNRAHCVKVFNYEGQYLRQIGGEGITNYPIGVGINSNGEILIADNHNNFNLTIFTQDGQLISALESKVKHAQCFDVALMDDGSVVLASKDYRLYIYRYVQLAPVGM
T4 sequence 3: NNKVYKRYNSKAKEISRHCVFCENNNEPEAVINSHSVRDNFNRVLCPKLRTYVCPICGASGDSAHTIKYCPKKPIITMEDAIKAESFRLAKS

Brat-NHL [15] = molecular target: T2, Brat-NHL; assay: ITC; remark: listed apart in the source
Brat-NHL [16] = molecular target: T2, Brat-NHL; assay: ITC; remark: listed apart in the source
Nanos-ZnF = molecular target: T5, Nanos-ZnF (Drosophila melanogaster, UniProt P25724 301-392); assay: ITC
T5 sequence: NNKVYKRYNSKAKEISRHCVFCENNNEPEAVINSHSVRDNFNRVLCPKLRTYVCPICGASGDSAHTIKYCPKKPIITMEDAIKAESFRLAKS

UUGUUG (ssRNA) [BoxA]
binding result (Pum-HD [1]): no binding
Kd (Brat-NHL [2]): 1100 ± 300 nM
Kd (Brat-NHL [3]): 800 ± 200 nM
Kd (Brat-NHL [4]): 1000 ± 300 nM

UGUACAUA (ssRNA) [BoxB]
Kd (Pum-HD [5]): 2 ± 2 nM
Kd (Pum-HD [6]): 8.1 ± 1.7 nM
Kd (Pum-HD [7]): 6.6 ± 4 nM

B1: ZnF domain of Nanos (Nanos-ZnF) (domain or fragment, Drosophila, UniProt P25724 301-392, looked up)
chain: NNKVYKRYNSKAKEISRHCVFCENNNEPEAVINSHSVRDNFNRVLCPKLRTYVCPICGASGDSAHTIKYCPKKPIITMEDAIKAESFRLAKS
stoichiometry N [8]: 1

UUGUUGUCGAAAAU (ssRNA) [NRE2 minus BoxB]
Kd (Pum-HD [5]): 1200 ± 80 nM
Kd (Pum-HD [7]): 1000 ± 20 nM

UUGUUGUC (ssRNA) [BoxAext]
binding result (Pum-HD [1]): no binding

UCGAAAAUUGUACAUAA (ssRNA) [NRE2 minus BoxA]
Kd (Pum-HD [9]): 11 ± 0.6 nM
Kd (Pum-HD [10]): 10 ± 0.3 nM

UUGUUGUCGAAAAUUGUACAUAA (structured_RNA) [NRE2 (23-mer)]
Kd (Brat-NHL [2]): 370 ± 100 nM
Kd (Pum-HD [11]): 15 nM
Kd (Brat-NHL [12]): 1400 nM
Kd (Pum-HD [13]): 2 nM
binding result [14]: binds
Kd (Brat-NHL [3]): 1200 ± 200 nM
Kd (Brat-NHL [4]): 320 ± 100 nM
Kd (Brat-NHL [15]): 200 nM
Kd (Brat-NHL [16]): 900 nM
binding result (Nanos-ZnF): no binding
